This experiment can be described thus: Single-channel current recording in planar phospholipid bilayer membranes. To be noted: voltage clamp, peptide added to one side, pH 7.4. The protocol:
Planar phospholipid bilayer membranes were formed as described by Mirzabekov et al. (1999) Meth. Enzymol. 294: 61-74. A bubble of lipid dissolved in heptane was placed at the end of a small (100-300 μm) Teflon tube. Silver/silver chloride electrodes connected the aqueous components bounding the membrane to a voltage clamp. Ion-channel currents through the membrane were recorded by an Axopatch amplifier (Axon Instruments, Sunnyvale, Calif.). Data were filtered at 1 kHz and stored on VHS tape. Membrane capacitance and resistance were monitored continuously to ensure the formation and stability of reproducible membranes and the proper membrane thickness. […] Peptide samples were introduced by perfusing the aqueous solution bounding one side of the membrane.

B1: SAA: human apo-serum amyloid A purchased from PeproTech (protein, UniProt P0DJI8 19-122, looked up)
Serum amyloid A-1 protein: RSFFSFLGEAFDGARDMWRAYSDMREANYIGSDKYFHARGNYDAAKRGPGGAWAAEVITDARENIQRFFGHGAEDSLADQAANEWGRSGKDPNHFRPAGLPEKY
B1: the “induction of single-channel ion currents / conductances” value is “Current jumps corresponding to the opening or closing of individual ion channels can be observed”.

For the origin of these results see patent US20070238184A1, “Amyloid beta protein channel structure and uses thereof in identifying potential drug molecules for neurodegenerative diseases” (The Regents of the University of California, priority 2005, published 2007).
